According to article PMC4670726 (2015):
Ends that are not written are not given here.

B1: JNK1 (as used in the fluorescence polarization titrations) (enzyme)
chain: MSRSKRDNNFYSVEIGDSTFTVLKRYQNLKPIGSGAQGIVCAAYDAILERNVAIKKLSRPFQNQTHAKRAYRELVLMKCVNHKNIIGLLNVFTPQKSLEEFQDVYIVMELMDANLCQVIQMELDHERMSYLLYQMLCGIKHLHSAGIIHRDLKPSNIVVKSDCTLKILDFGLARTAGTSFMMTPYVVTRYYRAPEVILGMGYKENVDLWSVGCIMGEMVCHKILFPGRDYIDQWNKVIEQLGTPCPEFMKKLQPTVRTYVENRPKYAGYSFEKLFPDVLFPADSEHNKLKASQARDLLSKMLVIDASKRISVDEALQHPYINVWYDPSEAEAPPPKIPDKQLDEREHTIEEWKELIYKEVMDLEERTKNGVIRGQPSPLGAAVINGSQHPSSSSSVNDVSSMSTDPTLASDTDSSLEAAAGPLGCCR

Tests used:
Test in all cases: FP
[1] = target: B1
[2] = target: ERK2 (as used in the fluorescence polarization titrations) (human, UniProt P28482 1-360)
[3] = target: p38α (as used in the fluorescence polarization titrations) (human, UniProt Q16539 1-360)
GAB3+ peptide = target: GAB3+ peptide

Kd [1] [µM]	Kd [2] [µM]	Kd [3] [µM]	Kd (GAB3+ peptide) [µM]	Binder
24.7	13.5	4.9	–	KKKSKPLNLKIH (not fully specified) [KSR2 peptide]
15.9	–	–	–	RPTSLAL (not fully specified) [MYO9B peptide]
–	–	1.2	–	LQRKKPPWLKLDIP (not fully specified) [RHDF1 peptide]
3.5	–	74.6	–	RPTRLSL (not fully specified) [IRS1 peptide]
19.3	84.7	–	–	RPQDLNL (not fully specified) [MKP5 peptide]
14.5	22.6	5.2	–	RHRDKRLSLNLP (not fully specified) [GAB3 peptide]
16.4	–	–	–	RPTTLPL (not fully specified) [PDE4B peptide]
5.1	31.8	–	–	RPKSLQL (not fully specified) [DOCK5 peptide]
10.8	–	–	–	RPKSLNL (not fully specified) [APBA2 peptide]
21.1	–	–	–	DPLHPTL (also: non-native Glu flanks added at both ends, number not given here) [ATF7 peptide]
16.7	–	29.5	–	RKHKDLYLPL (not fully specified) [DCX peptide]
–	14.4	24.5	–	KEKSGSLKLRIP (not fully specified) [CCNT2 peptide]
7.3	51.2	–	–	RPASLNL (not fully specified) [DOCK7 peptide]
–	15	8.9	–	KKIQPKLSLT (not fully specified) [JAZF1 peptide]
–	–	–	13.2	B1
–	17.5	8.2	–	KRRSLRVHIP (not fully specified) [AAKG2 peptide]
